The values below come from the supplement of paper PMC10567573.

A short description of this series: protein stability index of a GFP-peptide fusion (GPS, HEK-293T) (PSI 1-6); higher = more stable. Conditions: c terminus: a fixed tail appended.

± gives the standard deviation.
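Note: 24-mer peptide tiles fused after GFP, lentivirally expressed, FACS-sorted into six equal bins by GFP/DsRed ratio, decoded by Illumina sequencing, PSI is the read-weighted mean bin number.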

For the sequence QSHISDMSVILSMDNNRNLDLDSI [KRT71], the protein stability index was determined as 3.87 ± 0.4 (treatment: DMSO) and 3.72 ± 0.35 (treatment: MLN4924 1 uM, 8 h).
The matching figures for QVHQGIKGMVLDENYNNLANAVIS [CPN1]: 2.52 ± 0.23 and 2.62 ± 0.34.
As for QVLRNNPDALSDVGEVPYWVLEPV [ELOA2], the protein stability index runs as follows: (treatment: DMSO) 2.92 ± 0.52; (treatment: MLN4924 1 uM, 8 h) 3.34 ± 0.44.
The matching figures for QVLYEWEQGFSQSFTQEQVADIDG [CTNNB1]: 4.24 ± 0.3 and 4.09 ± 0.46.
Consider QYPAGTQGEQLEVPERLLVVLDME [SPSB2], for which the protein stability index by setting is: (treatment: DMSO) 3.82 ± 0.45; (treatment: MLN4924 1 uM, 8 h) 3.69 ± 0.19.
The matching figures for RAILYPCHGMSSQLVRYSADGLLQ [GALNT9]: 2.69 ± 0.22 and 2.76 ± 0.27.
The matching figures for RAQLHVQGLLHEAGSTDDRIVVPQ [SPNS1]: 4.15 ± 0.1 and 4.23 ± 0.22.
The matching figures for RAYLFNSVVNVGCGPAEERVLLTG [YPEL3]: 2.72 ± 0.56 and 2.87 ± 0.71.
Take RCKEENTIILQQLLPLRTKVAKLL [NLN]: the protein stability index runs as follows: (treatment: DMSO) 2.47 ± 0.25; (treatment: MLN4924 1 uM, 8 h) 2.21 ± 0.17.
The matching figures for RCVLVFEQVRFLMKSYSFLREAVP [SOAT2]: 2.54 ± 0.42 and 2.8 ± 0.38.
On to RDLIPPHVNFSHLTTKDYMEMYNV [SLC6A17], for which the protein stability index reads like this: (treatment: DMSO) 3.04 ± 0.28; (treatment: MLN4924 1 uM, 8 h) 3.23 ± 0.17.
The matching figures for RDVKPENFLIGRQGNKKEHVIHII [CSNK1G1]: 2.26 ± 0.42 and 2.33 ± 0.21.
Turning to RDYPSSRDTRDYAPPPRDYTYRDY [RBMX], the protein stability index reads like this: (treatment: DMSO) 2.87 ± 0.38; (treatment: MLN4924 1 uM, 8 h) 3.08 ± 0.35.
For REPALDGGFQMHYEKTPFDQLAFI [EID1], the protein stability index worked out at 2.65 ± 0.33 (treatment: DMSO) and 2.43 ± 0.28 (treatment: MLN4924 1 uM, 8 h).
For the sequence REQEKKPKKEANQAPKSKSGSRPR [LRRC59], the protein stability index by setting is: (treatment: DMSO) 5.41 ± 0.16; (treatment: MLN4924 1 uM, 8 h) 5.3 ± 0.23.
REVEARYALQMEQLNGILLHLESE [KRT18]: the protein stability index by setting is: (treatment: DMSO) 2.98 ± 0.63; (treatment: MLN4924 1 uM, 8 h) 3.16 ± 0.53.
The matching figures for RFHYDRNPGTDAVAQTSLEEFNVL [FATE1]: 3.74 ± 0.24 and 3.78 ± 0.11.
The matching figures for RFIHLVTGCVLGSSGKVLPKWGWE [POMT2]: 3.51 ± 1.3 and 3.15 ± 0.63.
The sequence RFLANEVLQENYTHLPKADIFALA [WEE1] had a protein stability index (treatment: DMSO) of 2.27 ± 0.2 and a protein stability index (treatment: MLN4924 1 uM, 8 h) of 2.33 ± 0.41.
Regarding RFLDYEMQNSNECKRNFVAVYDGS [NETO1], the protein stability index by setting is: (treatment: DMSO) 2.96 ± 0.24; (treatment: MLN4924 1 uM, 8 h) 3.31 ± 0.85.
The matching figures for RGHMPEWYTKSFGHLCAAEVVKIR [DLC1]: 2.08 ± 0.23 and 2.42 ± 0.32.
In the case of RHSKGLQILGQTLKASMRELGLLI [KCNA1], the protein stability index stood at 2.96 ± 0.5 (treatment: DMSO) and 2.89 ± 0.15 (treatment: MLN4924 1 uM, 8 h).
The matching figures for RHWHRPVLMAVSVHSERKLLPLVT [SCNN1D]: 2.23 ± 0.37 and 2.11 ± 0.26.
The matching figures for RITGLSPGRSALIVAVLCYINLLN [SPNS1]: 2.35 ± 0.47 and 2.14 ± 0.29.
Regarding RKKQHICDECGKHFSQGSALILHQ [ZNF24], the protein stability index reads like this: (treatment: DMSO) 3.53 ± 0.21; (treatment: MLN4924 1 uM, 8 h) 3.62 ± 0.41.
The matching figures for RKLLNRHNIVFGDYTWTEFDEPFL [TRIP13]: 2.24 ± 0.24 and 2.64 ± 0.22.
In turn, RKMLEQGYSPNGRDANGWTLLHFS [ASB7] came in with a protein stability index (treatment: DMSO) of 2.34 ± 0.14 and a protein stability index (treatment: MLN4924 1 uM, 8 h) of 2.49 ± 0.21.
The matching figures for RKRTAHERAKELYSSGEFSSGRKW [INTS4]: 4.06 ± 0.32 and 4.08 ± 0.31.
The matching figures for RLGPLSAEGTTGLAPAGQTSEESR [TNXB]: 5.3 ± 0.36 and 5.41 ± 0.2.
